For six molecules, Kd results are on record in paper PMC12657969.

The target in one data set is T1, GgeAgo_DM (Geobacillus genomosp. 3, UniProt S5Z517 1-710, D502A;D571A).
T1 sequence: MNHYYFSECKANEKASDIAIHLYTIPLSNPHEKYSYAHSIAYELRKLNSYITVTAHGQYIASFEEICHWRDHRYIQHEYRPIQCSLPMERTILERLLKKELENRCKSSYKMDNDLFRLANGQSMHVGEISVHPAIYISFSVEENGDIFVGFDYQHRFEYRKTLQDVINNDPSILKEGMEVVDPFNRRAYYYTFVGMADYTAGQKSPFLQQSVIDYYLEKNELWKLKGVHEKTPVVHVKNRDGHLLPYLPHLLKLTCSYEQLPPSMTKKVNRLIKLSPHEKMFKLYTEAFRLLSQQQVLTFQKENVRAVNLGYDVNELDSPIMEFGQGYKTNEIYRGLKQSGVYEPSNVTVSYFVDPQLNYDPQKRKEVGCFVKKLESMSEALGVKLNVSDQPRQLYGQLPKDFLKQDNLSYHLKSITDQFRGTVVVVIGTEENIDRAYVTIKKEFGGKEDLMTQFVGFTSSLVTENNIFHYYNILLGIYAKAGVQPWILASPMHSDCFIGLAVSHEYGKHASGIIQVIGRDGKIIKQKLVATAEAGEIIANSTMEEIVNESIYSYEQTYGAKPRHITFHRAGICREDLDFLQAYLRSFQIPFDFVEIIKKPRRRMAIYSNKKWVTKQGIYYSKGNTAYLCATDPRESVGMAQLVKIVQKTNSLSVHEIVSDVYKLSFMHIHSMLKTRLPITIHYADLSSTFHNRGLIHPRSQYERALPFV
Nature of the data set: fluorescence polarization. (Fluorescence polarisation rises when a labelled molecule tumbles more slowly, as on binding a larger partner.)

For the next data set, the target named is T2, GgeAgo (Geobacillus genomosp. 3, UniProt S5Z517 1-710).
T2 sequence: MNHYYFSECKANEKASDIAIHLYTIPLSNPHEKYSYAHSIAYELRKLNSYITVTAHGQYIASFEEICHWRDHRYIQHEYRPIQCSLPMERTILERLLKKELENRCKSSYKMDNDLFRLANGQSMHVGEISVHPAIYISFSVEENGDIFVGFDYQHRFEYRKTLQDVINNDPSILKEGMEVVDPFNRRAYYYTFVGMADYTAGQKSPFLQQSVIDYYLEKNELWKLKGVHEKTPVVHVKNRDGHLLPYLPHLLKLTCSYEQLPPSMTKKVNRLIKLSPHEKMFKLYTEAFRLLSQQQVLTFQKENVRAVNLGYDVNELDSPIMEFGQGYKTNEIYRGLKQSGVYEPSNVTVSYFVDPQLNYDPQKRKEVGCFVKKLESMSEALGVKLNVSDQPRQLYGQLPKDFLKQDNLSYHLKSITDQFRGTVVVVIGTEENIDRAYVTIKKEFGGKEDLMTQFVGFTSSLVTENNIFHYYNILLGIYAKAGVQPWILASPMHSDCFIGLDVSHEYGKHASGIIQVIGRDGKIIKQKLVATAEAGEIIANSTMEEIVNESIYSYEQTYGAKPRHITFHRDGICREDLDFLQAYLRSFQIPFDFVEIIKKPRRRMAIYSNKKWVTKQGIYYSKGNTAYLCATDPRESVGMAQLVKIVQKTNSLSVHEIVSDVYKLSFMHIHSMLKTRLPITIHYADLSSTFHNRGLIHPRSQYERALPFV
As to the kind of experiment: fluorescence polarization.

For orientation: Kd means the free concentration of one partner at which half of the binding sites on the other are occupied at equilibrium, for simple one-to-one binding.

B1: 5'P-gDNA / T-tDNA target (mixed)
DNA 1: TGAGGTAGTAGGTTGTAT
DNA 2: AAACGACGGCCAGTGCCAAGCTTACTATACAACCTACTACCTCAT
modifications: guide 5' phosphate
With B1, the dissociation constant (Kd) with GgeAgo_DM turned out to be 8.69 ± 1.28 nM.

B2: 5'OH-gDNA / T-tDNA target (mixed)
DNA 1: TGAGGTAGTAGGTTGTAT
DNA 2: AAACGACGGCCAGTGCCAAGCTTACTATACAACCTACTACCTCAT
modifications: guide 5' OH
On to B2, for which the dissociation constant (Kd) with GgeAgo_DM was found to be 20 ± 2.29 nM. This Kd is about 2.3-fold higher than that of the molecule before.
Molecule TGAGGTAGTAGGTTGTAT (ssDNA, 5' phosphate) [5'P-gDNA (T-gDNA iFAM)] registered a Kd with GgeAgo of 8.23 ± 1.47 nM.
Same read-out and setting: the value for TGAGGTAGTAGGTTGTAT (ssDNA, 5' OH) [5'OH-gDNA (T-gDNA iFAM)] was 11.1 ± 1.88 nM.

B3: 5'P-gDNA / U-tRNA (RNA target) (DNA:RNA)
DNA: TGAGGTAGTAGGTTGTAT
RNA: AAACGACGGCCAGUGCCAAGCUUACUAUACAACCUACUACCUCAU
modifications: guide 5' phosphate
The molecule B3 came in with a Kd with GgeAgo_DM of 10.7 ± 1.11 nM.

B4: 5'OH-gDNA / U-tRNA (RNA target) (DNA:RNA)
DNA: TGAGGTAGTAGGTTGTAT
RNA: AAACGACGGCCAGUGCCAAGCUUACUAUACAACCUACUACCUCAU
modifications: guide 5' OH
In the data set with GgeAgo_DM, B4 had a Kd of 32.2 ± 4.9 nM.
